Laboratory results: publication PMC4741457, “Structural basis for the indispensable role of a unique zinc finger motif in LNX2 ubiquitination” (Oncotarget, 2015)

Biological target: the molecule itself
Experiment: SEC; calibrated gel-filtration column (Superdex 75 or Superdex 200), each protein run alone

Protein | stoichiometry N | binding result
Zn-RING-Zn domain of LNX2 (aa 20-147) (domain or fragment, human, UniProt Q8N448 20-147, looked up, Genes were cloned into pGEX6P-1 or pMAL; The last six residues are not in the crystallographic model; Four zinc ions per monomer; source: E. coli BL21 (DE3), purified (glutathione or amylose sepharose, tag cleaved, Superdex size exclusion)) NPLCFECGQQHWTRENHLYNYQNEVDDDLVCHICLQPLLQPLDTPCGHTFCYKCLRNFLQEKDFCPLDRKRLHFKLCKKSSILVHKLLDKLLVLCPFSSVCKDVMQRCDLEAHLKNRCPGASHRRVAL | 2 | 
Zn-RING-Zn domain of LNX2 (aa 20-147) Asp45Ala (domain or fragment, human, UniProt Q8N448 20-147, looked up, PDB 5DIN is the wild-type parent of the same limits; also called Asp45Ala mutant; source: E. coli BL21 (DE3), purified) NPLCFECGQQHWTRENHLYNYQNEVADDLVCHICLQPLLQPLDTPCGHTFCYKCLRNFLQEKDFCPLDRKRLHFKLCKKSSILVHKLLDKLLVLCPFSSVCKDVMQRCDLEAHLKNRCPGASHRRVAL | 2 | 
full-length LNX2 (enzyme, human, UniProt Q8N448 1-690, looked up, Ligand of Numb protein-X 2 (LNX2), human, full length (last residue Val690); The methods say in general that MBP-tagged proteins were cleaved with TEV protease before size exclusion; MBP-tagged FL-LNX2 was used uncleaved in some ubiquitination assays; also called FL-LNX2; Ligand of Numb Protein-X 2; source: E. coli BL21 (DE3), purified (amylose sepharose, size exclusion)) MGTTSDEMVSVEQTSSSSLNPLCFECGQQHWTRENHLYNYQNEVDDDLVCHICLQPLLQPLDTPCGHTFCYKCLRNFLQEKDFCPLDRKRLHFKLCKKSSILVHKLLDKLLVLCPFSSVCKDVMQRCDLEAHLKNRCPGASHRRVALERRKTSRTQAEIENENGPTLLDPAGTLSPEADCLGTGAVPVERHLTSASLSTWSEEPGLDNPAFEESAGADTTQQPLSLPEGEITTIEIHRSNPYIQLGISIVGGNETPLINIVIQEVYRDGVIARDGRLLAGDQILQVNNYNISNVSHNYARAVLSQPCNTLHLTVLRERRFGNRAHNHSDSNSPREEIFQVALHKRDSGEQLGIKLVRRTDEPGVFILDLLEGGLAAQDGRLSSNDRVLAINGHDLKYGTPELAAQIIQASGERVNLTIARPGKPQPGNTIREAGNHSSSSQHHTPPPYYSRPSSHKDLTQCVTCQEKHITVKKEPHESLGMTVAGGRGSKSGELPIFVTSVPPHGCLARDGRIKRGDVLLNINGIDLTNLSHSEAVAMLKASAASPAVALKALEVQIVEEATQNAEEQPSTFSENEYDASWSPSWVMWLGLPSTLHSCHDIVLRRSYLGSWGFSIVGGYEENHTNQPFFIKTIVLGTPAYYDGRLKCGDMIVAVNGLSTVGMSHSALVPMLKEQRNKVTLTVICWPGSLV | 2 | 
full-length LNX2 triple mutant (Lys109Ala, Ser688Asp, Val690Glu) (enzyme, human, UniProt Q8N448 1-690, looked up, LNX2, human, full length, with Lys109Ala, Ser688Asp and Val690Glu; also called triple mutant of human FL-LNX2; source: E. coli BL21 (DE3), purified) MGTTSDEMVSVEQTSSSSLNPLCFECGQQHWTRENHLYNYQNEVDDDLVCHICLQPLLQPLDTPCGHTFCYKCLRNFLQEKDFCPLDRKRLHFKLCKKSSILVHKLLDALLVLCPFSSVCKDVMQRCDLEAHLKNRCPGASHRRVALERRKTSRTQAEIENENGPTLLDPAGTLSPEADCLGTGAVPVERHLTSASLSTWSEEPGLDNPAFEESAGADTTQQPLSLPEGEITTIEIHRSNPYIQLGISIVGGNETPLINIVIQEVYRDGVIARDGRLLAGDQILQVNNYNISNVSHNYARAVLSQPCNTLHLTVLRERRFGNRAHNHSDSNSPREEIFQVALHKRDSGEQLGIKLVRRTDEPGVFILDLLEGGLAAQDGRLSSNDRVLAINGHDLKYGTPELAAQIIQASGERVNLTIARPGKPQPGNTIREAGNHSSSSQHHTPPPYYSRPSSHKDLTQCVTCQEKHITVKKEPHESLGMTVAGGRGSKSGELPIFVTSVPPHGCLARDGRIKRGDVLLNINGIDLTNLSHSEAVAMLKASAASPAVALKALEVQIVEEATQNAEEQPSTFSENEYDASWSPSWVMWLGLPSTLHSCHDIVLRRSYLGSWGFSIVGGYEENHTNQPFFIKTIVLGTPAYYDGRLKCGDMIVAVNGLSTVGMSHSALVPMLKEQRNKVTLTVICWPGDLE |  | binds
